From US20250290928A1, “METHOD, KIT AND DEVICE FOR DETECTING EXTRACELLULAR VESICLES” (priority 2022, published 2025)
No end group written: not given here. *: point of attachment. 5FAM = O=C1OC2(c3ccc(O)cc3Oc3cc(O)ccc32)c2ccc(C(=O)*)cc21; TF3 = Tide Fluor 3, fluorescent dye; TQ2 = quencher; TQ3 = quencher

Experiments:
[1] = target: T1, MMP14 in the MDA-MB-231-derived extracellular vesicles (Homo sapiens, UniProt P50281); experiment: Digital detection of MDA-MB-231-derived extracellular vesicles through MMP14 activity in wells (microcompartments); format: biochemical; details: for Expected value λ / Number of positives / Positive ratio: reporter 5 μM, 30° C.
T1 construct: in terms of intact MMP14 with a molecular weight of 70 kDa
Protocol: The concentration of the solution is 6.7 μg/mL.
100 μL of the MMP14 detection solution was added to 100 μL of the sample to provide a reaction solution for wells. […] 100 μL of 200 μL of the prepared reaction solution for wells was used in the measurement of MMP14 activity with a 96-well plate.
Next, the wells were filled with the reaction solution by leaving the well array 200 to stand under reduced pressure to degas the space 205. After that, the space 205 was fed with hydrophobic solvents to be sealed. Fluorinated oils AsahiKlin AE-3000 (manufactured by AGC Inc.) and Fomblin Y-25 (manufactured by Solvay S.A.) were used as the hydrophobic solvents. A fluorinated oil Simoa (trademark) SR-X Sealing Oil: 102767 (manufactured by Quanterix Corporation) was further used as another hydrophobic solvent.
Well diameter: 4.25 μm Well depth: 3.25 μm Well capacity: 50 fL Number of wells in array: 239,000 Array range: 3 mm×4 mm
The concentration of the solution is 20 μg/mL. […] The concentration of the solution was set to x1, and 10-fold serial dilution was performed to prepare standard samples with five concentrations.
Next, the wells were filled with the reaction solution by leaving the well array 200 to stand under reduced pressure to degas the space 205. After that, the space 205 was fed with hydrophobic solvents to be sealed.
The concentration of the solution is 20 μg/mL. […] The concentration of the solution was set to x1, and 3-fold serial dilution was performed to prepare standard samples with three concentrations.
The concentration of the solution is 20 μg/mL. […] The concentration of the solution was set to x1, and 2-fold serial dilution was performed to prepare standard samples with four concentrations.
The concentration of the solution is 5 μg/mL.
50 μL of the MMP14 detection solution was added to 50 μL of the sample to provide a reaction solution for wells.
50 μL of each of the MMP14 detection solutions was added to 50 μL of the sample to provide a reaction solution for wells.
The concentration of the solution is 6.7 µg/mL.

[2] = target: T1, MMP14 in the MDA-MB-231-derived extracellular vesicles; experiment: Evaluation of MMP14 activity of MDA-MB-231-derived extracellular vesicles with 96-well plate; format: biochemical
Protocol: A relative fluorescence unit difference ΔRFU was calculated by subtracting the measured value of the sample for BG measurement from the measured value of each of the samples.
The concentration of the solution is 41.7 μg/mL. The concentration of the solution was set to x1, and 2-fold serial dilution was performed to prepare standard samples with six concentrations.
50 μL of the MMP14 detection solution was added to 50 μL of each of the samples, a reaction was performed at 37° C., and MMP14 activity was evaluated.
The concentration of the solution is 10 μg/mL.
50 μL of each of the MMP14 detection solutions was added to 50 μL of each of the samples, a reaction was performed at 37° C., and MMP14 activity was evaluated. […]
The concentration of the solution is 20 μg/mL. The concentration of the solution was set to x1, and 3-fold serial dilution was performed to prepare standard samples with three concentrations.
The concentration of the solution is 8 μg/mL.
50 μL of each of the MMP14 detection solutions was added to 50 μL of the sample, a reaction was performed at 37° C., and MMP14 activity was evaluated. […]
50 μL of the MMP14 detection solution was added to 50 μL of each of the samples, a reaction was performed at 30° C., and MMP14 activity was evaluated.
The MMP14 activity of the extracellular vesicles was evaluated with a 96-well plate (137101). A fluorescence intensity was measured with a fluorescence plate reader (Synergy) at 30° C. every 5 minutes for 2 hours. For measurement wavelengths, an excitation wavelength of 545±20 nm and a fluorescence wavelength of 588±20 nm were used. A relative fluorescence unit difference (ΔRFU) was calculated by subtracting the measured value of the sample for BG measurement from the measured value of each of the samples.
50 μL of each of the MMP14 detection solutions was added to 50 μL of each of the samples, a reaction was performed at 30° C., and MMP14 activity was evaluated.

[3] = Example 38, 4 hr, at a concentration of x1, 50 fL
[4] = Example 38, 24 hr, at a concentration of x1, 50 fL
[5] = Example 38, EV 2.5 μg/mL, 24 hr
[6] = Example 37, EV 5 μg/mL, reporter 5 μM, buffer (4)
[7] = MP, 1.25 μM with 5 μM Custom #2TF3
[8] = MP, 2.5 μM with 2.5 μM Custom #2TF3
[9] = Example 42, EV 2.5 μg/mL, 4 hr, TRITC filter
[10] = Example 42, EV 2.5 μg/mL, 24 hr, TRITC filter

“TQ2-LAPLGLQRRK(5-FAM) (TQ2-LAPLGLQRRK(5FAM)) [Custom #11]” was tested, and the “Expected value λ (×1)” value ([1]; Example 38, 4 hr) was 0.5433, the Extracellular vesicle concentration [1, 3] was 1.087e+10 mL⁻¹ and the “Expected value λ (×1)” value ([1]; Example 38, 24 hr) was 1.166. For the same substance, the Extracellular vesicle concentration [1, 4] was 2.3319e+10 mL⁻¹, the “Expected value λ” value ([1]; Example 38, EV 2.5 μg/mL, 4 hr) was 0.1358 and the Number of positives ([1]; Example 38, EV 2.5 μg/mL, 4 hr) was 3,566. The Positive ratio ([1]; Example 38, EV 2.5 μg/mL, 4 hr) was 0.127, the “Expected value λ” value [1, 5] was 0.2915 and the Number of positives [1, 5] was 7,100. For the same substance, the Positive ratio [1, 5] was 0.2529, the “Fluorescence change after 2 hours of reaction at 30° C.” value (“Fluorescence change after 2 hours” below) [2, 6] was 33,665 ΔRFU and the “Fluorescence change after 2 hours” value [2, 7] was 12,156 ΔRFU. The “Fluorescence change after 2 hours” value [2, 8] was 18,065 ΔRFU.

For TF3-GGPLGLAGGK(TQ3) [Custom #2TF3], the “Expected value λ” value [1, 9] was 0.1432, the Number of positives [1, 9] was 3,746 and the Positive ratio [1, 9] was 0.1334. For the same substance, the “Expected value λ” value [1, 10] was 0.1447, the Number of positives [1, 10] was 3,783 and the Positive ratio [1, 10] was 0.1347. For the same substance, the “Expected value λ (×1)” value ([1]; single reporter, reaction 4 hr, at EV concentration x1) was 0.5727, the Extracellular vesicle concentration ([1]; single reporter, reaction 4 hr, at x1, from λ (×1) and 50 fL microcompartment) was 1.1454e+10 mL⁻¹ and the “Expected value λ (×1)” value ([1]; single reporter, reaction 24 hr, at EV concentration x1) was 0.5788. For the same substance, the Extracellular vesicle concentration ([1]; single reporter, reaction 24 hr, at x1, from λ (×1) and 50 fL microcompartment) was 1.1576e+10 mL⁻¹, the “Fluorescence change after 2 hours” value ([2]; Example 41, EV 5 μg/mL, reporter 5 μM, buffer (4), excitation 545±20 nm, fluorescence 588±20 nm) was 3,791 ΔRFU and the “Fluorescence change after 2 hours” value ([2]; MP, 2.5 μM Custom #2TF3 with 2.5 μM Custom #11) was 313 ΔRFU. The “Fluorescence change after 2 hours” value ([2]; MP, 2.5 μM Custom #2TF3 with 2.5 μM Custom #12) was 319 ΔRFU, the “Fluorescence change after 2 hours” value ([2]; MP, 2.5 μM Custom #2TF3 with 2.5 μM Custom #13) was 452 ΔRFU and the “Fluorescence change after 2 hours” value ([2]; MP, 2.5 μM Custom #2TF3 with 2.5 μM Custom #14) was 397 ΔRFU. For the same substance, the “Fluorescence change after 2 hours” value ([2]; MP, 2.5 μM Custom #2TF3 with 2.5 μM Custom #15) was 551 ΔRFU, the “Fluorescence change after 2 hours” value ([2]; MP, 2.5 μM Custom #2TF3 with 2.5 μM Custom #16) was 1,085 ΔRFU and the “Fluorescence change after 2 hours” value ([2]; MP, 5 μM Custom #2TF3 with 1.25 μM Custom #11) was 772 ΔRFU. For the same substance, the “Fluorescence change after 2 hours” value ([2]; MP, 5 μM Custom #2TF3 with 1.25 μM Custom #12) was 618 ΔRFU, the “Fluorescence change after 2 hours” value ([2]; MP, 5 μM Custom #2TF3 with 1.25 μM Custom #13) was 814 ΔRFU and the “Fluorescence change after 2 hours” value ([2]; MP, 5 μM Custom #2TF3 with 1.25 μM Custom #14) was 714 ΔRFU. The “Fluorescence change after 2 hours” value ([2]; MP, 5 μM Custom #2TF3 with 1.25 μM Custom #15) was 1,023 ΔRFU and the “Fluorescence change after 2 hours” value ([2]; MP, 5 μM Custom #2TF3 with 1.25 μM Custom #16) was 1,857 ΔRFU.

“TQ2-WYPAGLRMVK(5-FAM) (TQ2-WYPAGLRMVK(5FAM)) [Custom #13]” was tested, and the “Expected value λ (×1)” value ([1]; Example 38, 4 hr) was 0.5455, the Extracellular vesicle concentration [1, 3] was 1.091e+10 mL⁻¹ and the “Expected value λ (×1)” value ([1]; Example 38, 24 hr) was 1.05. For the same substance, the Extracellular vesicle concentration [1, 4] was 2.101e+10 mL⁻¹, the “Expected value λ” value ([1]; Example 38, EV 2.5 μg/mL, 4 hr) was 0.1364 and the Number of positives ([1]; Example 38, EV 2.5 μg/mL, 4 hr) was 3,573. The Positive ratio ([1]; Example 38, EV 2.5 μg/mL, 4 hr) was 0.1275, the “Expected value λ” value [1, 5] was 0.2626 and the Number of positives [1, 5] was 6,485. The Positive ratio [1, 5] was 0.2309, the “Fluorescence change after 2 hours” value [2, 6] was 19,279 ΔRFU and the “Fluorescence change after 2 hours” value [2, 7] was 7,073 ΔRFU. The “Fluorescence change after 2 hours” value [2, 8] was 9,939 ΔRFU.

In the case of “MCA-Pro-Leu-Ala-Cys(p-OMeBz)-Trp-Ala-Arg(Dpa)-NH2 [MMP-14 Substrate I]”, the “detection of MMP14 activity (fluorescence intensity increased with the reaction time)” value ([2]; Example 3, EV 5 μg/mL, reporter 10, 5 or 2.5 μM, 37° C., 2 hours) was “MMP14 activity was able to be detected”.
